Experimental findings from article doi:10.1101/2023.05.29.542777 are described below.

Experiment in all cases: co-IP
The target of assay [1] is TbTim10-2X-Myc (T. brucei).
Assay [2] deals with TbTim10-3X-HA (T. brucei).
Assay [3] addresses TbTim12-3X-HA (T. brucei).
For assay [4], the target named is TbTim13-3X-HA (T. brucei).
Assay [5] has as its target TbTim8/13-3X-HA (T. brucei).
The next assay has as its target TbTim9-3X-HA (T. brucei).

In assay [1], TbTim8/13-3X-HA (natural protein) had a percent of the input co-precipitated (% of the input) of 45.

As to TbTim9-3X-HA (natural protein), the percent of the input co-precipitated (% of the input) in assay [1] is 35.

In the case of TbTim10-2X-Myc (natural protein), the percent of the input co-precipitated in assay [2], in assay [3] and in assay [4] was < 10% each time. Moreover, the percent of the input co-precipitated (% of the input) (in assay [5]; with TbTim9-3X-HA (T. brucei)) was 60 in each case.

In assay [1], TbTim10-3X-HA (natural protein) returned a percent of the input co-precipitated (% of the input) of 30.

In assay [1], TbTim12-3X-HA (natural protein) had a percent of the input co-precipitated (% of the input) of 25.
